# Assay results as given in the Human Domainome abundance scans (Beltran et al. 2025).
# ± gives the uncertainty stated by the source.
# B1: Peripheral plasma membrane protein CASK, residues 488 to 569; numbered along this chain, O14936 (parent)
# chain: VRLVQFQKNTDEPMGITLKMNELNHCIVARIMHGGMIHRQGTLHVGDEIREINGISVANQTVEQLQKMLREMRGSITFKIVP
# Variants of: B1
# Test: abundance fitness (aPCA) (normalised: wild type 0, dead -1); higher = more abundant; growth selection in yeast, the domain comes from the species named
# Settings: Homo sapiens
row,Variant,abundance fitness
1,VRLVQFQKNTDEPMGITLKMNELLHCIVARIMHGGMIHRQGTLHVGDEIREINGISVANQTVEQLQKMLREMRGSITFKIVP [N24L],-0.427 ± 0.026
2,VRLVQFQKNTDEPMGITLKMNELMHCIVARIMHGGMIHRQGTLHVGDEIREINGISVANQTVEQLQKMLREMRGSITFKIVP [N24M],-0.204 ± 0.03
3,VRLVQFQKNTDEPMGITLKMNELPHCIVARIMHGGMIHRQGTLHVGDEIREINGISVANQTVEQLQKMLREMRGSITFKIVP [N24P],-0.922 ± 0.066
4,VRLVQFQKNTDEPMGITLKMNELRHCIVARIMHGGMIHRQGTLHVGDEIREINGISVANQTVEQLQKMLREMRGSITFKIVP [N24R],-0.064 ± 0.02
5,VRLVQFQKNTDEPMGITLKMNELSHCIVARIMHGGMIHRQGTLHVGDEIREINGISVANQTVEQLQKMLREMRGSITFKIVP [N24S],-0.045 ± 0.023
6,VRLVQFQKNTDEPMGITLKMNELTHCIVARIMHGGMIHRQGTLHVGDEIREINGISVANQTVEQLQKMLREMRGSITFKIVP [N24T],-0.265 ± 0.03
7,VRLVQFQKNTDEPMGITLKMNELVHCIVARIMHGGMIHRQGTLHVGDEIREINGISVANQTVEQLQKMLREMRGSITFKIVP [N24V],-0.7 ± 0.034
8,VRLVQFQKNTDEPMGITLKMNELWHCIVARIMHGGMIHRQGTLHVGDEIREINGISVANQTVEQLQKMLREMRGSITFKIVP [N24W],-0.467 ± 0.032
9,VRLVQFQKNTDEPMGITLKMNELYHCIVARIMHGGMIHRQGTLHVGDEIREINGISVANQTVEQLQKMLREMRGSITFKIVP [N24Y],-0.226 ± 0.043
10,VRLVQFQKNTDEPMGITLKMNELNACIVARIMHGGMIHRQGTLHVGDEIREINGISVANQTVEQLQKMLREMRGSITFKIVP [H25A],-0.016 ± 0.024
11,VRLVQFQKNTDEPMGITLKMNELNCCIVARIMHGGMIHRQGTLHVGDEIREINGISVANQTVEQLQKMLREMRGSITFKIVP [H25C],-0.013 ± 0.031
12,VRLVQFQKNTDEPMGITLKMNELNDCIVARIMHGGMIHRQGTLHVGDEIREINGISVANQTVEQLQKMLREMRGSITFKIVP [H25D],-0.163 ± 0.037
13,VRLVQFQKNTDEPMGITLKMNELNECIVARIMHGGMIHRQGTLHVGDEIREINGISVANQTVEQLQKMLREMRGSITFKIVP [H25E],0.019 ± 0.027
14,VRLVQFQKNTDEPMGITLKMNELNFCIVARIMHGGMIHRQGTLHVGDEIREINGISVANQTVEQLQKMLREMRGSITFKIVP [H25F],-0.194 ± 0.05
15,VRLVQFQKNTDEPMGITLKMNELNGCIVARIMHGGMIHRQGTLHVGDEIREINGISVANQTVEQLQKMLREMRGSITFKIVP [H25G],-0.046 ± 0.021
16,VRLVQFQKNTDEPMGITLKMNELNICIVARIMHGGMIHRQGTLHVGDEIREINGISVANQTVEQLQKMLREMRGSITFKIVP [H25I],-0.073 ± 0.047
17,VRLVQFQKNTDEPMGITLKMNELNLCIVARIMHGGMIHRQGTLHVGDEIREINGISVANQTVEQLQKMLREMRGSITFKIVP [H25L],-0.064 ± 0.025
18,VRLVQFQKNTDEPMGITLKMNELNMCIVARIMHGGMIHRQGTLHVGDEIREINGISVANQTVEQLQKMLREMRGSITFKIVP [H25M],-0.019 ± 0.031
19,VRLVQFQKNTDEPMGITLKMNELNNCIVARIMHGGMIHRQGTLHVGDEIREINGISVANQTVEQLQKMLREMRGSITFKIVP [H25N],0.027 ± 0.036
20,VRLVQFQKNTDEPMGITLKMNELNPCIVARIMHGGMIHRQGTLHVGDEIREINGISVANQTVEQLQKMLREMRGSITFKIVP [H25P],-0.819 ± 0.06
21,VRLVQFQKNTDEPMGITLKMNELNQCIVARIMHGGMIHRQGTLHVGDEIREINGISVANQTVEQLQKMLREMRGSITFKIVP [H25Q],0.019 ± 0.03
22,VRLVQFQKNTDEPMGITLKMNELNRCIVARIMHGGMIHRQGTLHVGDEIREINGISVANQTVEQLQKMLREMRGSITFKIVP [H25R],-0.016 ± 0.021
23,VRLVQFQKNTDEPMGITLKMNELNTCIVARIMHGGMIHRQGTLHVGDEIREINGISVANQTVEQLQKMLREMRGSITFKIVP [H25T],-0.09 ± 0.029

row,Variant,abundance fitness
1,VRLVQFQKNTDEPMGITLKMNELNWCIVARIMHGGMIHRQGTLHVGDEIREINGISVANQTVEQLQKMLREMRGSITFKIVP [H25W],-0.32 ± 0.031
2,VRLVQFQKNTDEPMGITLKMNELNYCIVARIMHGGMIHRQGTLHVGDEIREINGISVANQTVEQLQKMLREMRGSITFKIVP [H25Y],-0.102 ± 0.047
3,VRLVQFQKNTDEPMGITLKMNELNHAIVARIMHGGMIHRQGTLHVGDEIREINGISVANQTVEQLQKMLREMRGSITFKIVP [C26A],-0.067 ± 0.025
4,VRLVQFQKNTDEPMGITLKMNELNHDIVARIMHGGMIHRQGTLHVGDEIREINGISVANQTVEQLQKMLREMRGSITFKIVP [C26D],-0.868 ± 0.091
5,VRLVQFQKNTDEPMGITLKMNELNHEIVARIMHGGMIHRQGTLHVGDEIREINGISVANQTVEQLQKMLREMRGSITFKIVP [C26E],-0.909 ± 0.059
6,VRLVQFQKNTDEPMGITLKMNELNHGIVARIMHGGMIHRQGTLHVGDEIREINGISVANQTVEQLQKMLREMRGSITFKIVP [C26G],-0.736 ± 0.029
7,VRLVQFQKNTDEPMGITLKMNELNHIIVARIMHGGMIHRQGTLHVGDEIREINGISVANQTVEQLQKMLREMRGSITFKIVP [C26I],0.032 ± 0.05
8,VRLVQFQKNTDEPMGITLKMNELNHKIVARIMHGGMIHRQGTLHVGDEIREINGISVANQTVEQLQKMLREMRGSITFKIVP [C26K],-0.202 ± 0.04
9,VRLVQFQKNTDEPMGITLKMNELNHLIVARIMHGGMIHRQGTLHVGDEIREINGISVANQTVEQLQKMLREMRGSITFKIVP [C26L],-0.083 ± 0.026
10,VRLVQFQKNTDEPMGITLKMNELNHMIVARIMHGGMIHRQGTLHVGDEIREINGISVANQTVEQLQKMLREMRGSITFKIVP [C26M],-0.076 ± 0.033
11,VRLVQFQKNTDEPMGITLKMNELNHPIVARIMHGGMIHRQGTLHVGDEIREINGISVANQTVEQLQKMLREMRGSITFKIVP [C26P],0.015 ± 0.029
12,VRLVQFQKNTDEPMGITLKMNELNHQIVARIMHGGMIHRQGTLHVGDEIREINGISVANQTVEQLQKMLREMRGSITFKIVP [C26Q],-0.708 ± 0.059
13,VRLVQFQKNTDEPMGITLKMNELNHRIVARIMHGGMIHRQGTLHVGDEIREINGISVANQTVEQLQKMLREMRGSITFKIVP [C26R],-0.642 ± 0.029
14,VRLVQFQKNTDEPMGITLKMNELNHSIVARIMHGGMIHRQGTLHVGDEIREINGISVANQTVEQLQKMLREMRGSITFKIVP [C26S],-0.732 ± 0.043
15,VRLVQFQKNTDEPMGITLKMNELNHVIVARIMHGGMIHRQGTLHVGDEIREINGISVANQTVEQLQKMLREMRGSITFKIVP [C26V],0.015 ± 0.023
16,VRLVQFQKNTDEPMGITLKMNELNHWIVARIMHGGMIHRQGTLHVGDEIREINGISVANQTVEQLQKMLREMRGSITFKIVP [C26W],-0.031 ± 0.026
17,VRLVQFQKNTDEPMGITLKMNELNHYIVARIMHGGMIHRQGTLHVGDEIREINGISVANQTVEQLQKMLREMRGSITFKIVP [C26Y],-0.07 ± 0.048
18,VRLVQFQKNTDEPMGITLKMNELNHCAVARIMHGGMIHRQGTLHVGDEIREINGISVANQTVEQLQKMLREMRGSITFKIVP [I27A],-0.166 ± 0.025
19,VRLVQFQKNTDEPMGITLKMNELNHCCVARIMHGGMIHRQGTLHVGDEIREINGISVANQTVEQLQKMLREMRGSITFKIVP [I27C],-0.16 ± 0.029
20,VRLVQFQKNTDEPMGITLKMNELNHCDVARIMHGGMIHRQGTLHVGDEIREINGISVANQTVEQLQKMLREMRGSITFKIVP [I27D],-1.05 ± 0.1
21,VRLVQFQKNTDEPMGITLKMNELNHCEVARIMHGGMIHRQGTLHVGDEIREINGISVANQTVEQLQKMLREMRGSITFKIVP [I27E],-0.05 ± 0.03
22,VRLVQFQKNTDEPMGITLKMNELNHCFVARIMHGGMIHRQGTLHVGDEIREINGISVANQTVEQLQKMLREMRGSITFKIVP [I27F],-0.08 ± 0.037
23,VRLVQFQKNTDEPMGITLKMNELNHCKVARIMHGGMIHRQGTLHVGDEIREINGISVANQTVEQLQKMLREMRGSITFKIVP [I27K],-0.175 ± 0.038

row,Variant,abundance fitness
1,VRLVQFQKNTDEPMGITLKMNELNHCMVARIMHGGMIHRQGTLHVGDEIREINGISVANQTVEQLQKMLREMRGSITFKIVP [I27M],-0.052 ± 0.03
2,VRLVQFQKNTDEPMGITLKMNELNHCPVARIMHGGMIHRQGTLHVGDEIREINGISVANQTVEQLQKMLREMRGSITFKIVP [I27P],-0.883 ± 0.067
3,VRLVQFQKNTDEPMGITLKMNELNHCQVARIMHGGMIHRQGTLHVGDEIREINGISVANQTVEQLQKMLREMRGSITFKIVP [I27Q],-0.106 ± 0.03
4,VRLVQFQKNTDEPMGITLKMNELNHCRVARIMHGGMIHRQGTLHVGDEIREINGISVANQTVEQLQKMLREMRGSITFKIVP [I27R],-0.227 ± 0.022
5,VRLVQFQKNTDEPMGITLKMNELNHCSVARIMHGGMIHRQGTLHVGDEIREINGISVANQTVEQLQKMLREMRGSITFKIVP [I27S],-0.17 ± 0.024
6,VRLVQFQKNTDEPMGITLKMNELNHCTVARIMHGGMIHRQGTLHVGDEIREINGISVANQTVEQLQKMLREMRGSITFKIVP [I27T],-0.021 ± 0.03
7,VRLVQFQKNTDEPMGITLKMNELNHCVVARIMHGGMIHRQGTLHVGDEIREINGISVANQTVEQLQKMLREMRGSITFKIVP [I27V],-0.045 ± 0.023
8,VRLVQFQKNTDEPMGITLKMNELNHCWVARIMHGGMIHRQGTLHVGDEIREINGISVANQTVEQLQKMLREMRGSITFKIVP [I27W],-0.187 ± 0.027
9,VRLVQFQKNTDEPMGITLKMNELNHCYVARIMHGGMIHRQGTLHVGDEIREINGISVANQTVEQLQKMLREMRGSITFKIVP [I27Y],0.007 ± 0.037
10,VRLVQFQKNTDEPMGITLKMNELNHCIAARIMHGGMIHRQGTLHVGDEIREINGISVANQTVEQLQKMLREMRGSITFKIVP [V28A],-0.479 ± 0.032
11,VRLVQFQKNTDEPMGITLKMNELNHCICARIMHGGMIHRQGTLHVGDEIREINGISVANQTVEQLQKMLREMRGSITFKIVP [V28C],-0.272 ± 0.036
12,VRLVQFQKNTDEPMGITLKMNELNHCIDARIMHGGMIHRQGTLHVGDEIREINGISVANQTVEQLQKMLREMRGSITFKIVP [V28D],-0.898 ± 0.096
13,VRLVQFQKNTDEPMGITLKMNELNHCIEARIMHGGMIHRQGTLHVGDEIREINGISVANQTVEQLQKMLREMRGSITFKIVP [V28E],-1.01 ± 0.068
14,VRLVQFQKNTDEPMGITLKMNELNHCIGARIMHGGMIHRQGTLHVGDEIREINGISVANQTVEQLQKMLREMRGSITFKIVP [V28G],-0.992 ± 0.045
15,VRLVQFQKNTDEPMGITLKMNELNHCIIARIMHGGMIHRQGTLHVGDEIREINGISVANQTVEQLQKMLREMRGSITFKIVP [V28I],0.03 ± 0.041
16,VRLVQFQKNTDEPMGITLKMNELNHCIKARIMHGGMIHRQGTLHVGDEIREINGISVANQTVEQLQKMLREMRGSITFKIVP [V28K],-1.16 ± 0.12
17,VRLVQFQKNTDEPMGITLKMNELNHCILARIMHGGMIHRQGTLHVGDEIREINGISVANQTVEQLQKMLREMRGSITFKIVP [V28L],-0.424 ± 0.03
18,VRLVQFQKNTDEPMGITLKMNELNHCINARIMHGGMIHRQGTLHVGDEIREINGISVANQTVEQLQKMLREMRGSITFKIVP [V28N],-1.01 ± 0.25
19,VRLVQFQKNTDEPMGITLKMNELNHCIPARIMHGGMIHRQGTLHVGDEIREINGISVANQTVEQLQKMLREMRGSITFKIVP [V28P],-1.08 ± 0.097
20,VRLVQFQKNTDEPMGITLKMNELNHCISARIMHGGMIHRQGTLHVGDEIREINGISVANQTVEQLQKMLREMRGSITFKIVP [V28S],-0.867 ± 0.063
21,VRLVQFQKNTDEPMGITLKMNELNHCITARIMHGGMIHRQGTLHVGDEIREINGISVANQTVEQLQKMLREMRGSITFKIVP [V28T],-0.651 ± 0.051
